By Km is commonly meant the concentration of substrate that gives half-maximal velocity.

The data set has as its system COc1cc2c(c(OC)c1OC)-c1ccc(OC)c(=O)cc1[C@@H](NC(C)=O)CC2. The data set can be described thus: TP_TRANSPORTER: uptake in membranes from CEM/VLB100 cells. It is filed as functional, cell membranes, Membrane.

As for “ATP-dependent translocase ABCB1 (Homo sapiens)”, the Km is 1.33 µM.

Source of the values: ChEMBL document CHEMBL2074321, “A continuous fluorescence assay for the study of P-glycoprotein-mediated drug efflux using inside-out membrane vesicles” (Anal Biochem, 1999).
